Results taken from PMC2581521 (Developmental cell, 2008).

T1: Xenopus Chordin-Myc (Xenopus, UniProt Q91713 20-941)
T1 sequence (looked up): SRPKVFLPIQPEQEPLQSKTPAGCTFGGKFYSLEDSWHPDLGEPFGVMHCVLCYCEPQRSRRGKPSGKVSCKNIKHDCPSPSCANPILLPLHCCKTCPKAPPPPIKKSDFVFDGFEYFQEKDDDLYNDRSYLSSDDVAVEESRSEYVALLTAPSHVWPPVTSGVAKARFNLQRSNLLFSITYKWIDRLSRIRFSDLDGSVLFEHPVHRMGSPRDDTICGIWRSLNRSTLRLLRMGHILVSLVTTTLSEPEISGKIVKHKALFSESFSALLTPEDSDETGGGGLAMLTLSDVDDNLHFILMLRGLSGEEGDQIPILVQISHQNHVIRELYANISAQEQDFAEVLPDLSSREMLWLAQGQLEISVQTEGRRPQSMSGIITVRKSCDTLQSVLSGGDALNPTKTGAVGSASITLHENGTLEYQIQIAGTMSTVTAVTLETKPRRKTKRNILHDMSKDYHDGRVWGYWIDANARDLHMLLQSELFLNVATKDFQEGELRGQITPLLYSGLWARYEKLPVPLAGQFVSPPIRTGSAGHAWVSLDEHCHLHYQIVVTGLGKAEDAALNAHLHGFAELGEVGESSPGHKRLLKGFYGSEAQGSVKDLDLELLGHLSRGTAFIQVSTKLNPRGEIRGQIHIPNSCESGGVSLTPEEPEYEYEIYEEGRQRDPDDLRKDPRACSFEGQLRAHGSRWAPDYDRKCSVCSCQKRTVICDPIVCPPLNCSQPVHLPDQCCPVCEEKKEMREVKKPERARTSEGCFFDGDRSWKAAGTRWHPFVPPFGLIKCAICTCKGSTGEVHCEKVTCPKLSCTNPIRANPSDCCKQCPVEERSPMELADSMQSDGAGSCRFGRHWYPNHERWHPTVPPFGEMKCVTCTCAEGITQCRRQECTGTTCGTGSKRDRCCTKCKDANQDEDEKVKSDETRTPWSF

B1: Crossveinless-2 (recombinant mouse CV2) (natural protein)
chain: not shown
B2: Bone Morphogenetic Protein 4 (recombinant human BMP4) (ligand, UniProt P12644 293-408, looked up)
chain: SPKHHSQRARKKNKNCRRHSLYVDFSDVGWNDWIVAPPGYQAFYCHGDCPFPLADHLNSTNHAIVQTLVNSVNSSIPKACCVPTELSAISMLYLDEYDKVVLKNYQEMVVEGCGCR
B3: Twisted gastrulation (recombinant mouse Tsg) (natural protein, UniProt Q9EP52 25-222, looked up)
chain: CNKALCASDVSKCLIQELCQCRPGEGNCPCCKECMLCLGALWDECCDCVGMCNPRNYSDTPPTSKSTVEELHEPIPSLFRALTEGDTQLNWNIVSFPVAEELSHHENLVSFLETVNQLHHQNVSVPSNNVHAPFPSDKERMCTVVYFDDCMSIHQCKISCESMGASKYRWFHNACCECIGPECIDYGSKTVKCMNCMF

Assays:
[1] = target: T1, Xenopus Chordin-Myc; assay: cross-linking
[2] = target: B3; assay: cross-linking
[3] = target: B1; assay: co-IP

binding result [1]	binding result [2]	binding result [3]	Binder
binds			B1
binds	binds		B2
		binds	B3
